Experimental data reported in PMC6093203 (Journal of the American Chemical Society, 2018).

Molecular target: non-phosphorylated PTEN (n-PTEN)
Assay: fluorescence polarisation

- Kd: 120 µM
B1: F-HECT-WWP2 (domain or fragment)
chain: KPYDLRRRLYIIMRGEEGLDYGGIAREWFFLLSHEVLNPMYCLFEYAGKNNYCLQINPASSINPDHLTYFRFIGRFIAMALYHGKFIDTGFTLPFYKRMLNKRPTLKDLESIDPEFYNSIVWIKENNLEECGLELYFIQDMEILGKVTTHELKEGGESIRVTEENKEEYIMLLTDWRFTRGVEEQTKAFLDGFNEVAPLEWLRYFDEKELELMLCGMQEIDMSDWQKSTIYRHYTKNSKQIQWFWQVVKEMDNEKRIRLLQFVTGTCRLPVGGFAELIGSNGPQKFCIDKVGKETWLPRSHTCFNRLDLPPYKSYEQLREKLLYAIEETEGFGQE
modifications: fluorescein on the N-terminal Cys
